Earlier results as cited in article PMC4364296.
Values joined by “and” are separate entries in the source; they are usually repeats but may differ in a detail not shown here. Equal values may be shown once. Read-outs that look alike come from different tables or passages of the source.

Columns and labels:
ZipA (Escherichia coli) [1] = target: ZipA (Escherichia coli) (UniProt P77173)
ZipA (Escherichia coli) [2] = target: ZipA (Escherichia coli) (UniProt P77173); remark: listed apart in the source

Sequence of FtsZ (P0A9A6 whole entry): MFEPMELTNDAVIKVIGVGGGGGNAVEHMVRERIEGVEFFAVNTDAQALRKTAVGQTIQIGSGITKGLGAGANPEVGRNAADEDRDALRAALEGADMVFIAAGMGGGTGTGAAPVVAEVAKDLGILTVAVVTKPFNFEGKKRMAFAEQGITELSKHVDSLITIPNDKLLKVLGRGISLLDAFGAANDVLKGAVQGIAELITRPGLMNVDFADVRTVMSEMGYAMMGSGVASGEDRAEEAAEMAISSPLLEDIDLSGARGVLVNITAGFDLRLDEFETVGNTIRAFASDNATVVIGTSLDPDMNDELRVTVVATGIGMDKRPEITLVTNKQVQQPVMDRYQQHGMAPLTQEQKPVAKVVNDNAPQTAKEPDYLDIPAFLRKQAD

Kd (ZipA (Escherichia coli) [2])	Substance	Kd (ZipA (Escherichia coli) [1])
–	FtsZ (from UniProt P0A9A6)	40 µM
35 µM and 21.6 µM	FtsZ CCTP peptide CCTP (from UniProt P0A9A6)	–
